Key:
Format in all cases: cell-based
[1] = test system: Klebsiella pneumonia; experiment: MIC against Gram-negative bacteria: Klebsiella pneumonia; conditions: 96-well plate, 5×10^5 CFU/mL, 37° C., 10 h
Procedure: (§1) 1. Gram-negative bacteria, such as E. coli BL21, Pseudomonas aeruginosa, Klebsiella pneumonia, Enterobacter cloacae, Aeromonas hydrophila, Citrobacter diversus, Moraxella catarrhalis, Proteus mirabilis, Proteus vulgaris, Serratia marcescens, etc were streaked on solid LB medium and cultured respectively. Then, typical clones were picked, inoculated into common liquid LB medium respectively, and cultured at 37° C. with shaking at 185 rpm until the McFarland specific turbidity was 0.5. The bacterial culture of each of Gram-negative bacteria was centrifuged at 4000×g for 3 min, the supernatant was discarded, and the thalli were resuspended with fresh LB medium.
(§2) 2. The above-mentioned bacterial suspensions were diluted and inoculated into 96-well plates with the final concentration of the bacterial suspension being 5×10^5 CFU/mL per well.
(§3) 3. Each of the purified human-originated EGF domain proteins (PRT1 to PRT1498 in Table 1) was added to each of the above wells and subjected to two-fold serial dilution in concentration. Three parallel wells were set up for each concentration in the gradient.
(§4) 4. The above-mentioned 96-well plates were placed and cultured at 37° C. in shaking incubator shaking at 175 rpm. […] The minimal inhibitory concentration MIC is defined as the lowest concentration of the recombinant protein at which there is no growth of the bacteria.

[2] = test system: Moraxella catarrhalis; experiment: MIC against Gram-negative bacteria: Moraxella catarrhalis; conditions: 96-well plate, 5×10^5 CFU/mL, 37° C., 10 h
Procedure: as §1, §2, §3, §4

[3] = test system: Proteus mirabilis; experiment: MIC against Gram-negative bacteria: Proteus mirabilis; conditions: 96-well plate, 5×10^5 CFU/mL, 37° C., 10 h
Procedure: as §1, §2, §3, §4

[4] = test system: Serratia marcescens; experiment: MIC against Gram-negative bacteria: Serratia marcescens; conditions: 96-well plate, 5×10^5 CFU/mL, 37° C., 10 h
Procedure: as §1, §2, §3, §4

[5] = test system: E. coli BL21; experiment: MIC against Gram-negative bacteria: E. coli BL21; conditions: 96-well plate, 5×10^5 CFU/mL, 37° C., 10 h
Procedure: as §1, §2, §3, §4

[6] = test system: Citrobacter diversus; experiment: MIC against Gram-negative bacteria: Citrobacter diversus; conditions: 96-well plate, 5×10^5 CFU/mL, 37° C., 10 h
Procedure: as §1, §2, §3, §4

[7] = test system: E. coli DH5α; experiment: Antibacterial activity: MIC and growth curve against E. coli DH5α in 96-well plate; conditions: minimal inhibitory concentration against E. coli DH5α; 96-well plate, 5×10^5 CFU/mL, 37° C., judged after 8 h
Procedure: 1. E. coli DH5α was exemplified. E. coli DH5α was streaked and cultured on LB solid medium. Then, a typical clone was picked and inoculated into common LB liquid medium, cultured at 37° C. with shaking at 185 rpm until the logarithmic growth phase was reached (OD600 of about 0.5). The bacterial culture was centrifuged at 4000×g for 3 min, the supernatant was discarded, and the thalli were resuspended with fresh LB medium.
2. The above-mentioned bacterial suspension was diluted and inoculated into a 96-well plate with the total volume of 100 μL per well and a bacterial count of 5×10^5 CFU/mL.
3. The recombinant protein hF VII-EGF1 was added to the above-mentioned wells with the final protein concentration in the well of the highest protein concentration being 50 μg/mL. Basing on this final concentration, a two-fold serial dilution was performed till a protein concentration gradient consisting of 50, 25, and 12.5 μg/mL was set up. Three parallel wells were set up for each concentration in the gradient.
as §4, with “plate was” for “plates were”, “rpm. Samples were taken every 30 min, the absorbance values were determined at 600 nm wavelength under a ultra violet spectrophotometer, and an inhibition curve was plotted.” for “rpm.”
According to the experimental procedures in Example 14, the minimal inhibitory concentrations (MIC, μg/mL) of the other human-originated EGF domain proteins (PRT2 to PRT1498 in Table 1) for E. coli DH5α were determined.

[8] = test system: Pseudomonas aeruginosa; experiment: MIC against Gram-negative bacteria: Pseudomonas aeruginosa; conditions: 96-well plate, 5×10^5 CFU/mL, 37° C., 10 h
Procedure: as §1, §2, §3, §4

[9] = test system: Enterobacter cloacae; experiment: MIC against Gram-negative bacteria: Enterobacter cloacae; conditions: 96-well plate, 5×10^5 CFU/mL, 37° C., 10 h
Procedure: as §1, §2, §3, §4

[10] = test system: Aeromonas hydrophila; experiment: MIC against Gram-negative bacteria: Aeromonas hydrophila; conditions: 96-well plate, 5×10^5 CFU/mL, 37° C., 10 h
Procedure: as §1, §2, §3, §4

[11] = test system: Proteus vulgaris; experiment: MIC against Gram-negative bacteria: Proteus vulgaris; conditions: 96-well plate, 5×10^5 CFU/mL, 37° C., 10 h
Procedure: as §1, §2, §3, §4

B1: PRT529 (protein, listed as Homo sapiens)
chain: CNCHGHASNCYYDPDVERQQASLNTQGIYAGGGVCINCQHNTAGVNCEQCAKGYYRPYGVPVDAPDGCIP
B1 was tested, and the “MIC against K. pneumonia” value [1] was 50 µg/mL, the “MIC against M. catarrhalis” value [2] was 50 µg/mL and the “MIC against P. mirabilis” value [3] was 25 µg/mL. For the same molecule, the “MIC against S. marcescens” value [4] was 25 µg/mL, the “MIC against E. coli BL21” value [5] was 12.5 µg/mL and the “MIC against C. diversus” value [6] was 25 µg/mL. For the same molecule, the MIC [7] was 25 µg/mL, the “MIC against P. aeruginosa” value [8] was 25 µg/mL and the “MIC against E. cloacae” value [9] was 25 µg/mL. The “MIC against A. hydrophila” value [10] was 12.5 µg/mL and the “MIC against P. vulgaris” value [11] was 12.5 µg/mL.

B2: PRT551 (protein, listed as Homo sapiens)
chain: CNCYGHATDCYYDPEVDRRRASQSLDGTYQGGGVCIDCQHHTTGVNCERCLPGFYRSPNHPLDSPHVCRR
In the case of B2, the “MIC against K. pneumonia” value [1] is reported as 25 µg/mL, the “MIC against M. catarrhalis” value [2] is reported as 25 µg/mL and the “MIC against P. mirabilis” value [3] is reported as 12.5 µg/mL. The “MIC against S. marcescens” value [4] was 50 µg/mL, the “MIC against E. coli BL21” value [5] was 25 µg/mL and the “MIC against C. diversus” value [6] was 50 µg/mL. The MIC [7] was 12.5 µg/mL, the “MIC against P. aeruginosa” value [8] was 50 µg/mL and the “MIC against E. cloacae” value [9] was 12.5 µg/mL. For the same molecule, the “MIC against A. hydrophila” value [10] was 25 µg/mL and the “MIC against P. vulgaris” value [11] was 25 µg/mL.

B3: PRT588 (protein, listed as Homo sapiens)
chain: CDCNGHSETCHFDPAVFAASQGAYGGVCDNCRDHTEGKNCERCQLHYFRNRRPGASIQETCIS
B3 was tested, and the “MIC against K. pneumonia” value [1] was 25 µg/mL, the “MIC against M. catarrhalis” value [2] was 25 µg/mL and the “MIC against P. mirabilis” value [3] was 12.5 µg/mL. The “MIC against S. marcescens” value [4] was 12.5 µg/mL, the “MIC against E. coli BL21” value [5] was 25 µg/mL and the “MIC against C. diversus” value [6] was 12.5 µg/mL. For the same molecule, the MIC [7] was 12.5 µg/mL, the “MIC against P. aeruginosa” value [8] was 50 µg/mL and the “MIC against E. cloacae” value [9] was 12.5 µg/mL. The “MIC against A. hydrophila” value [10] was 25 µg/mL and the “MIC against P. vulgaris” value [11] was 25 µg/mL.

B4: PRT587 (protein, listed as Homo sapiens)
chain: CFCHGHADRCAPKPGASAGPSTAVQVHDVCVCQHNTAGPNCERCAPFYNNRPWRPAEGQDAHECQR
For B4, the “MIC against K. pneumonia” value [1] was 12.5 µg/mL, the “MIC against M. catarrhalis” value [2] was 12.5 µg/mL and the “MIC against P. mirabilis” value [3] was 25 µg/mL. For the same molecule, the “MIC against S. marcescens” value [4] was 25 µg/mL, the “MIC against E. coli BL21” value [5] was 50 µg/mL and the “MIC against C. diversus” value [6] was 25 µg/mL. The MIC [7] was 25 µg/mL, the “MIC against P. aeruginosa” value [8] was 25 µg/mL and the “MIC against E. cloacae” value [9] was 25 µg/mL. The “MIC against A. hydrophila” value [10] was 50 µg/mL and the “MIC against P. vulgaris” value [11] was 50 µg/mL.

B5: PRT593 (protein, listed as Homo sapiens)
chain: CFCNGHASECRPMQKMRGDVFSPPGMVHGQCVCQHNTDGPNCERCKDFFQDAPWRPAADLQDNACRS
For B5, the “MIC against K. pneumonia” value [1] was 12.5 µg/mL, the “MIC against M. catarrhalis” value [2] was 12.5 µg/mL and the “MIC against P. mirabilis” value [3] was 25 µg/mL. The “MIC against S. marcescens” value [4] was 25 µg/mL, the “MIC against E. coli BL21” value [5] was 50 µg/mL and the “MIC against C. diversus” value [6] was 25 µg/mL. The MIC [7] was 25 µg/mL, the “MIC against P. aeruginosa” value [8] was 25 µg/mL and the “MIC against E. cloacae” value [9] was 25 µg/mL. The “MIC against A. hydrophila” value [10] was 50 µg/mL and the “MIC against P. vulgaris” value [11] was 50 µg/mL.

B6: PRT598 (protein, listed as Homo sapiens)
chain: CSCNSHSSRCHFDMTTYLASGGLSGGVCEDCQHNTEGQHCDRCRPLFYRDPLKTISDPYACIP
In the case of B6, the “MIC K. pneumonia” value [1] is reported as 50 µg/mL, the “MIC M. catarrhalis” value [2] is reported as 25 µg/mL and the “MIC P. mirabilis” value [3] is reported as 12.5 µg/mL. The “MIC S. marcescens” value [4] was 25 µg/mL, the “MIC E. coli BL21” value [5] was 50 µg/mL and the “MIC C. diversus” value [6] was 50 µg/mL. For the same molecule, the MIC [7] was 25 µg/mL, the “MIC P. aeruginosa” value [8] was 12.5 µg/mL and the “MIC E. cloacae” value [9] was 12.5 µg/mL. The “MIC A. hydrophila” value [10] was 25 µg/mL and the “MIC P. vulgaris” value [11] was 50 µg/mL.
